The text below walks through data of patent US20200347143A1 (GLENMARK PHARMACEUTICALS S A, published 2020).

By Kd is commonly meant a measure of binding affinity in units of concentration. What is called koff is the rate constant with which the complex falls apart. Broadly, the kon is a measure of how fast the partners come together.

The target in experiment [1] is T1, human OX40 on cells (human, UniProt P43489 29-277).
T1 sequence (looked up): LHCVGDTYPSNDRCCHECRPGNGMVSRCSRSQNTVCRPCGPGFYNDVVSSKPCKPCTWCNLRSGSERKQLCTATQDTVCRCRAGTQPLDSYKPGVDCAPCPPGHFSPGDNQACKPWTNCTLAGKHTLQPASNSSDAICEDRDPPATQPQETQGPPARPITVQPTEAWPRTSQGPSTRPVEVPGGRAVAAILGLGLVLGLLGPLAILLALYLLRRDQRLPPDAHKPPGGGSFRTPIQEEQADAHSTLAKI
As to the kind of experiment: cell-based or functional assay.

For the next experiment, the target named is rat OX40-Fc (rat). Briefly: ELISA on coated rat OX40-Fc. As to the method:
(§1) These constructs were expressed in HEK293-EBNA1 cells and purified using protein A. Then, human and rat OX40-Fc were tested in ELISA and Biacore to determine antibody cross-reactivity. For the ELISA, 96 well-microtiter plates (Costar USA, distributor VWR AG, Nyon, Switzerland) were coated with 100 μl of recombinant human or rat OX40-Fc at 2 μg/ml in PBS. Plates were incubated overnight at 4° C. and were then blocked with PBS 2% BSA (Bovine Serum Albumine, PAA Laboratories, Pasching, Austria) at room temperature (RT) for one hour. The blocking solution was removed and the purified antibodies were added at 10 μg/ml in PBS 2% BSA. The plates were incubated at RT for 1 hour, then washed 5 times with PBS 0.01% Tween-20 (Sigma-Aldrich Chemie GmbH, Buchs, Switzerland). […] Plates were incubated for 1 hour at RT, washed 5 times with PBS 0.01% Tween-20 and the TMB substrate (Bio-rad Laboratories AG, Reinach, Switzerland) was added to the plates and the reaction stopped after 5 minutes by adding H₂SO₄. Absorbance was then read at 450 nm by a microplate reader (Biotek, USA; distributor: WITTEC AG, Littau, Switzerland). Biacore experiments were specifically conducted with Hexa-hzG3V9 and Hexa-hz1D10v1 which are dAb-Fc fusion proteins. […] Binding of human and cyno OX40-Fc molecules was determined by successively injecting these proteins on the 4 flow-paths (flow-path 1 and 3 being used as references) at a concentration of 200 nM and a flow rate of 30 uL/min for 240 seconds. Regeneration between the two injections was done using 3M MgCl2, at 30 uL/min for 60 seconds. Using these two approaches, human/rat OX40 binding was assessed (table 16).

For another experiment, the target named is T2, human OX40-Fc (human).
T2 construct: also called recombinant human OX40-Fc; human OX40 (HHHH)
As to the kind of experiment: ELISA on coated human OX40-Fc, antibody 10 µg/ml. As to the method:
as §1

The target in experiment [2] is T3, recombinant human OX40-his protein (human, UniProt P43489 29-214).
T3 construct: Secreted via the native signal peptide, which lies within residues 1-214; also called Human OX40R-His; histidine tagged human OX40 receptor extracellular domain
T3 sequence: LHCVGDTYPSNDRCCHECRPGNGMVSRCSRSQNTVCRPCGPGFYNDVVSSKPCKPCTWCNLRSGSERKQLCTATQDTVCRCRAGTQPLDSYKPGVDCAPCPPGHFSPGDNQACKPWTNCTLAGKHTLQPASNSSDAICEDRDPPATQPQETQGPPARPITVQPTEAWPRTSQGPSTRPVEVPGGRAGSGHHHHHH
Briefly: SPR (BIAcore 2000), antibody captured on Protein A, OX40-his injected. As to the method:
SPR analysis was used to measure the association and dissociation rate constants for the binding kinetics of the anti-OX40 antibodies. The binding kinetics were measured on a BIAcore 2000 (BIAcore-GE Healthcare Europe GmbH, Glattbrugg, Switzerland) at room temperature and analyzed with the BiaEvaluation software (v4.1, GE Healthcare Europe GmbH).
Measurements were performed on CM5 sensor chips (Biacore 2000, GE Healthcare Europe GmbH, Cat. No: BR-1000-14) individually coupled with Protein A (Sigma, Buchs, Switzerland, Cat. No: P7837) using a commercial amine coupling kit (GE Healthcare Europe GmbH, Cat. No: BR-1000-50). 200-600 RUs of humanized antibody were captured. Dilution series of OX40-his were injected at a flow rate of 10 μl/min in HBS-EP buffer (GE Healthcare Europe GmbH, Cat. No: BR1001-88). After each binding event, the surface was regenerated with 10 μl of glycine buffer pH 1.5. Experimental data were processed using a 1:1 Langmuir model with local Rmax. The dissociation time was about 7 min. Measurements were performed in duplicates or triplicates and included zero-concentration samples for referencing. Both Chit and residual values were used to evaluate the quality of a fit between the experimental data and individual binding models.

In experiment [3] the target is T1, human OX40 on cells. As to the kind of experiment: flow cytometry on HPB-ALL cells, 10 µg/ml antibody. How it is done:
HPB-ALL cells (DSMZ, Braunschweig, Germany, Cat. No: ACC483) were used as a human OX40 positive cell line for FACS staining. HPB-ALL were maintained in RPMI 1640 supplemented with 10% FCS and 100 U/ml Penicillin and 100 μg/ml streptomycin. 4×10e5 HPB-ALL cells in FACS buffer (PBS supplemented with 1% BSA and 0.1% sodium azide) were incubated for 45 min on ice with the anti-OX40 antibody of interest kept at a concentration of 10 μg/ml An irrelevant human IgG1 was used as an isotype control; the cells were incubated with a 1/200 dilution of anti-Human Fc-PE (EBioscience, Vienna, Austria) for 45 min on ice. Cells were then washed again and resuspended in 200 μl FACS buffer. The relative mean fluorescence of each sample was measured on a FACSCalibur instrument (BD Biosciences, Allschwil, Switzerland).
A first set of 16 humanized antibodies of human gamma one isotype were prepared. These first humanized candidates were assessed for transient expression in HEK293E cells and binding to HB-ALL cell by flow cytometry (Table 7).

rat OX40-Fc (rat), sequence (chain, as listed by the source limits assumed): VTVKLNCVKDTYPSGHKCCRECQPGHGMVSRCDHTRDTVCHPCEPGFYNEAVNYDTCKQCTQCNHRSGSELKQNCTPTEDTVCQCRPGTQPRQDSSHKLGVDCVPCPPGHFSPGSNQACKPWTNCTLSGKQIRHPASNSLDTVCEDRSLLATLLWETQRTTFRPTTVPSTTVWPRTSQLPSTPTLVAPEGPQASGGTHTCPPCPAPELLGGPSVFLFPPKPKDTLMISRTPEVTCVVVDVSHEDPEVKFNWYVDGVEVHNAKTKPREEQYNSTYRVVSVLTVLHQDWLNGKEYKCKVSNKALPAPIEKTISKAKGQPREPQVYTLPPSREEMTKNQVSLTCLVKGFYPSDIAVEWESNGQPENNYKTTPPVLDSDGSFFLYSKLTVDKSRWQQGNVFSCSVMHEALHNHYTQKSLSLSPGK

B1: 11D4 IgG2 (antibody, V domains shown)
VH: EVQLVESGGGLVQPGGSLRLSCAASGFTFSSYSMNWVRQAPGKGLEWVSYISSSSSTIDYADSVKGRFTISRDNAKNSLYLQMNSLRDEDTAVYYCARESGWYLFDYWGQGTLVTVSS
VL: DIQMTQSPSSLSASVGDRVTITCRASQGISSWLAWYQQKPEKAPKSLIYAASSLQSGVPSRFSGSGSGTDFTLTISSLQPEDFATYYCQQYNSYPPTFGGGTKVEIKR
B1: in the experiment with human OX40 on cells [1], the “% donor responder (>2), SEB assay, IL-2 release” value (“% donor responder” below) is 18% and the “Mean, normalized IL-2 release, SEB assay” value worked out at 1.87. Further, the binding result with rat OX40-Fc is “no binding (tested: 10 µg/ml)”.

B2: 2H6_hzG3v9_8 (bispecific antibody, human IgG1, kappa, L234A L235A)
heavy: not shown
light: DIQLTQSPSSLSASVGDRVTITCRASESVDNYGISFMNWFQQKPGKAPKLLIYAASNQKSGVPSRFSGSGSGTDFTLTISSLQPEDFATYFCQQSKEVPLTFGQGTKVEIKRTVAAPSVFIFPPSDEQLKSGTASVVCLLNNFYPREAKVQWKVDNALQSGNSQESVTEQDSKDSTYSLSSTLTLSKADYEKHKVYACEVTHQGLSSPVTKSFNRGEC
Take B2: in the experiment with human OX40 on cells [1], the “% donor responder” value stood at 100% and the “Mean, normalized IL-2 release, SEB assay” value came out at 48.4.

B3: Tri-8 (bispecific antibody, human IgG1, kappa, L234A L235A)
heavy 1: QVQLVQSGAEVKKPGASVKVSCKASGYTFTRYYMHWVRQAPGQGLEWMGWIYPGEGSTKYAQKFQGRVTMTRDTSISTAYMELSRLRSDDTAVYYCAREYGNYDYWGQGTLVTVSSASTKGPSVFPLAPSSKSTSGGTAALGCLVKDYFPEPVTVSWNSGALTSGVHTFPAVLQSSGLYSLSSVVTVPSSSLGTQTYICNVNHKPSNTKVDKKVEPKSCDKTHTCPPCPAPEAAGGPSVFLFPPKPKDTLMISRTPEVTCVVVDVSHEDPEVQFKWYVDGVEVHNAKTKPREEQYNSTFRVVSVLTVLHQDWLNGKEYKCKVSNKALPAPIEKTISKTKGQPREPAVYTLPPSREEMTKNQVKLVCLVTGFYPSDIAVEWESSGQPENNYYTTPPMLDSDGSFSLVSWLNVDKSRWQQGNIFSCSVMHEALHNRFTQKSLSLSPGGGGGTEVQLVESGGGLVQPGGSLRLSCAVSGYSITSDYAWNWIRQAPGKCLEWMGYISYSGSTAYNPSLKSRITISRDTSKNTFYLQMSSLRAEDTAVYYCARGPYNYLAYWGQGTLVTVSSGGGGSGGGGSGGGGSDIQLTQSPSSLSASVGDRVTITCRASESVDNYGISFMNWFQQKPGKAPKLLIYAASNQKSGVPSRFSGSGSGTDFTLTISSLQPEDFATYFCQQSKEVPLTFGCGTKVEIL
heavy 2: QVQLVQSGAEVKKPGASVKVSCKASGYTFTRYYMHWVRQAPGQGLEWMGWIYPGEGSTKYAQKFQGRVTMTRDTSISTAYMELSRLRSDDTAVYYCAREYGNYDYWGQGTLVTVSSASTKGPSVFPLAPSSKSTSGGTAALGCLVKDYFPEPVTVSWNSGALTSGVHTFPAVLQSSGLYSLSSVVTVPSSSLGTQTYICNVNHKPSNTKVDKKVEPKSCDKTHTCPPCPAPEAAGGPSVFLFPPKPKDTLMISRTPEVTCVVVDVSHEDPEVKFNWYVDGVEVHNAKTKPREEQYNSTYRVVSVLTVLHQDWLNGKEYKCKVSNKALPAPIEKTISKAKGQPREPEVATFPPSRDELTKNQVTLVCLVTGFYPSDIAVEWESNGQPENNYKTDPPLLESQGSFALSSRLRVDKSRWQQGNVFSCSVMHEALHNHYTQKSLSLSPGK
light: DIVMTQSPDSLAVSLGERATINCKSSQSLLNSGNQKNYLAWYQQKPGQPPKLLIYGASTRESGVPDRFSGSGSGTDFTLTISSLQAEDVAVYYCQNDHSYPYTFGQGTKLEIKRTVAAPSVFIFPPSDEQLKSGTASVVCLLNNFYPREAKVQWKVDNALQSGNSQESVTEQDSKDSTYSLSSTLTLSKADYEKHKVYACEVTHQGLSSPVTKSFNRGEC
Turning to B3, in the experiment with human OX40 on cells [1], the “% donor responder” value turned out to be 0% and the “Mean, normalized IL-2 release, SEB assay” value was found to be 0.96.

B4: 1A7 IgG1 (antibody, V domains shown)
VH: EVQLVQSGAEVKKPGASVKVSCKASGYTFTDSYMSWVRQAPGQGLEWIGDMYPDNGDSSYNQKFRERVTITRDTSTSTAYLELSSLRSEDTAVYYCVLAPRWYFSVWGQGTLVTVSS
VL: DIQMTQSPSSLSASVGDRVTITCRASQDISNYLNWYQQKPGKAPKLLIYYTSRLRSGVPSRFSGSGSGTDFTLTISSLQPEDFATYYCQQGHTLPPTFGQGTKVEIKR
On to B4, for which the binding result in the experiment with human OX40-Fc was “binds”.

B5: 106-222 IgG1 (antibody, V domains shown)
VH: QVQLVQSGSELKKPGASVKVSCKASGYTFTDYSMHWVRQAPGQGLKWMGWINTETGEPTYADDFKGRFVFSLDTSVSTAYLQISSLKAEDTAVYYCANPYYDYVSYYAMDYWGQGTTVTVSS
VL: DIQMTQSPSSLSASVGDRVTITCKASQDVSTAVAWYQQKPGKAPKLLIYSASYLYTGVPSRFSGSGSGTDFTFTISSLQPEDIATYYCQQHYSTPRTFGQGTKLEIKR
Take B5: the binding result with human OX40-Fc is reported as “binds”. Further, in the experiment with human OX40 on cells [1], the “% donor responder” value was determined as 6% and the “Mean, normalized IL-2 release, SEB assay” value worked out at 0.86. In the experiment with rat OX40-Fc, the binding result was “no binding (tested: 10 µg/ml)”.

B6: Humanized 7H11 VH1/VL1 IgG1 (antibody, V domains shown)
VH: QVQLVQSGAEVKKPGASVKVSCKASGYTFTRYYMHWVRQAPGQGLEWMGWIYPGDGSTKYSQKFQGRVTITRDTSASTAYMELSSLRSEDTAVYYCAREYGNYDYWGQGTLVTVSS
VL: DIVMTQSPDSLAVSLGERATINCKSSQSLLNSGNQKNYLAWYQQKPGQPPKLLIYGASTRESGVPDRFSGSGSGTDFTLTISSLQAEDVAVYYCQNDHSYPYTFGQGTKLEIKR
notes: human IgG1, kappa; also called Humanized VH1-VL1 IgG1
Take B6: in experiment [2], the equilibrium dissociation constant (Kd) is 35 nM, the koff amounted to 0.00058 s⁻¹ and the kon is 16700 M⁻¹ s⁻¹. Further, in the experiment with human OX40 on cells [3], the MFI stood at 120.

B7: Humanized 7H11 VH2/VL1 IgG1 (antibody, V domains shown)
VH: QVQLVQSGAEVKKPGASVKVSCKASGYTFTRYYMHWVRQAPGQGLEWMGWIYPGDGSTNYAQKFQGRVTMTRDTSISTAYMELSRLRSDDTAVYYCAREYGNYDYWGQGTLVTVSS
VL: DIVMTQSPDSLAVSLGERATINCKSSQSLLNSGNQKNYLAWYQQKPGQPPKLLIYGASTRESGVPDRFSGSGSGTDFTLTISSLQAEDVAVYYCQNDHSYPYTFGQGTKLEIKR
notes: human IgG1, kappa; also called Humanized VH2-VL1 IgG1
With B7, in experiment [2], the Kd was 21 nM, the koff is 0.0013 s⁻¹ and the kon was found to be 58500 M⁻¹ s⁻¹. In the experiment with human OX40 on cells [3], this molecule returned an MFI of 120.

B8: Humanized 7H11 VH3/VL1 IgG1 (antibody, V domains shown)
VH: QVQLVQSGAEVKKPGASVKVSCKASGYTFTRYYMHWVRQAPGQGLEWMGIIYPGDGSTSYAQKFQGRVTMTRDTSTSTVYMELSSLRSEDTAVYYCAREYGNYDYWGQGTLVTVSS
VL: DIVMTQSPDSLAVSLGERATINCKSSQSLLNSGNQKNYLAWYQQKPGQPPKLLIYGASTRESGVPDRFSGSGSGTDFTLTISSLQAEDVAVYYCQNDHSYPYTFGQGTKLEIKR
notes: human IgG1, kappa; also called Humanized VH3-VL1 IgG1
Regarding B8, in experiment [2], the Kd turned out to be 80 nM, the koff amounted to 0.0055 s⁻¹ and the kon is 62500 M⁻¹ s⁻¹. This molecule also showed an MFI with human OX40 on cells [3] of 121.
